In IntAct's records for PubMed 16362034:

B1: ETS-like protein pointed (Drosophila melanogaster (Fruit fly)), P51023 (parent)
chain: MELAICKTDLSATKFMLPPALPSSAAIGSSSAVASTASHFLDKAAHELFQLNAINGHLFKSPASSHLNSVGSPSILSQLNGIGNSGNHSGQVSTMRLKKNRKVTFLSSLVESKNIFIKEEPIHGCKDLCSLSDISDHEASLEVPTALPPLTPGTNRKVNEVLKASFASWEKEVQKCNITKDPREWTEEHVIYWLNWAKNEFSLVSMNLDPFYKMKGRAMVDLGKEKFLAITPPFTGDILWEHLDILQKDCEKPNEDIVHGNSFESATTASVCGSDHQVANYPNETHANSNNSSINSRLSMDYVTSAGNSDNKNFHRATPHSHNGYNTSNTHDRINNSTPPQQQQSQQPTVNGSGSASSNNNNSMLPPAVQQSNNENNNTSSSNTNNSSNNNNNSGGSNNSNAGSNNNNNNNNNINFMAAAAIFQHHLKEEPGTQNGNIGGYGGGSNSQNDPTDLSSYGLPAHLAAYGGGSGSGPTGGRSSGGGGDESDYHSTISAQDHQSQQSSGGNGSGGASGGSTGNSNGYLDSSSEFYGSYAGRNRFHDGYPPEFTPYDAQSFQSMGPQPTAMDQWGAAHAHQHPAAYMSTLGLDKGLLGGYTTQGGVPCFTGSGPIQLWQFLLELLLDKTCQSFISWTGDGWEFKLTDPDEVARRWGIRKNKPKMNYEKLSRGLRYYYDKNIIHKTAGKRYVYRFVCDLQNLVGHTPEELVAKYDLKIEKKDVD

Variants of: B1
Details: with erka_drome rl

effect of a mutation on the interaction | Variant
disrupting interaction | T151A
decreasing interaction | L228R
decreasing interaction | F234A
